Data from IntAct's records for PubMed 31515488.

B1: Zinc finger protein 655 (Homo sapiens), Q8N720 (parent)
chain: MEEIPAQEAAGSPRVQFQSLETQSECLSPEPQFVQDTDMEQGLTGDGETREENKLLIPKQKISEEVHSYKVRVGRLKHDITQVPETREVYKSEDRLERLQEILRKFLYLEREFRQITISKETFTSEKNNECHEPEKSFSLDSTIDADQRVLRIQNTDDNDKYDMSFNQNSASGKHEHLNLTEDFQSSECKESLMDLSHLNKWESIPNTEKSYKCDVCGKIFHQSSALTRHQRIHTREKPYKCKECEKSFSQSSSLSRHKRIHTREKPYKCEASDKSCEASDKSCSPSSGIIQHKKIHTRAKSYKCSSCERVFSRSVHLTQHQKIHKEMPCKCTVCGSDFCHTSYLLEHQRVHHEEKAYEYDEYGLAYIKQQGIHFREKPYTCSECGKDFRLNSHLIQHQRIHTGEKAHECNECGKAFSQTSCLIQHHKMHRKEKSYECNEYEGSFSHSSDLILQQEVLTRQKAFDCDVWEKNSSQRAHLVQHQSIHTKENS
B2: Carbonyl reductase [NADPH] 3 (Homo sapiens), O75828 (parent)
chain: MSSCSRVALVTGANRGIGLAIARELCRQFSGDVVLTARDVARGQAAVQQLQAEGLSPRFHQLDIDDLQSIRALRDFLRKEYGGLNVLVNNAAVAFKSDDPMPFDIKAEMTLKTNFFATRNMCNELLPIMKPHGRVVNISSLQCLRAFENCSEDLQERFHSETLTEGDLVDLMKKFVEDTKNEVHEREGWPNSPYGVSKLGVTVLSRILARRLDEKRKADRILVNACCPGPVKTDMDGKDSIRTVEEGAETPVYLALLPPDATEPQGQLVHDKVVQNW
B3: Protein boule-like (Homo sapiens), Q8N9W6 (parent)
chain: MQTDSLSPSPNPVSPVPLNNPTSAPRYGTVIPNRIFVGGIDFKTNESDLRKFFSQYGSVKEVKIVNDRAGVSKGYGFVTFETQEDAQKILQEAEKLNYKDKKLNIGPAIRKQQVGIPRSSIMPAAGTMYLTTSTGYPYTYHNGVAYFHTPEVTSVPPPWPSRSVCSSPVMVAQPIYQQPAYHYQATTQYLPGQWQWSVPQPSASSAPFLYLQPSEVIYQPVEIAQDGGCVPPPLSLMETSVPEPYSDHGVQATYHQVYAPSAITMPAPVMQPEPIKTVWSIHY
partner: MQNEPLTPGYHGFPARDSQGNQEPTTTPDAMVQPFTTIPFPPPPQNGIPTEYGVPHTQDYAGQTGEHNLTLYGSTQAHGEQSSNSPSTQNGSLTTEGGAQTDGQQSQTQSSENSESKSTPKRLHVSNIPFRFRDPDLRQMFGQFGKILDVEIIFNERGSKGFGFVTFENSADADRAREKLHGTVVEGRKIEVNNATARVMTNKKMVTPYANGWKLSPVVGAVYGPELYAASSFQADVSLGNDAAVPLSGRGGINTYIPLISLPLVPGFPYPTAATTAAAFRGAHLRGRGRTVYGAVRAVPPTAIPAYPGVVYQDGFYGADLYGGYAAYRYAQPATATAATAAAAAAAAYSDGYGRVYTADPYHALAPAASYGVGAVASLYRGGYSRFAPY
B4: Zinc finger protein Aiolos (Homo sapiens), Q9UKT9 (parent)
chain: MEDIQTNAELKSTQEQSVPAESAAVLNDYSLTKSHEMENVDSGEGPANEDEDIGDDSMKVKDEYSERDENVLKSEPMGNAEEPEIPYSYSREYNEYENIKLERHVVSFDSSRPTSGKMNCDVCGLSCISFNVLMVHKRSHTGERPFQCNQCGASFTQKGNLLRHIKLHTGEKPFKCHLCNYACQRRDALTGHLRTHSVEKPYKCEFCGRSYKQRSSLEEHKERCRTFLQSTDPGDTASAEARHIKAEMGSERALVLDRLASNVAKRKSSMPQKFIGEKRHCFDVNYNSSYMYEKESELIQTRMMDQAINNAISYLGAEALRPLVQTPPAPTSEMVPVISSMYPIALTRAEMSNGAPQELEKKSIHLPEKSVPSERGLSPNNSGHDSTDTDSNHEERQNHIYQQNHMVLSRARNGMPLLKEVPRSYELLKPPPICPRDSVKVINKEGEVMDVYRCDHCRVLFLDYVMFTIHMGCHGFRDPFECNMCGYRSHDRYEFSSHIARGEHRALLK
partner: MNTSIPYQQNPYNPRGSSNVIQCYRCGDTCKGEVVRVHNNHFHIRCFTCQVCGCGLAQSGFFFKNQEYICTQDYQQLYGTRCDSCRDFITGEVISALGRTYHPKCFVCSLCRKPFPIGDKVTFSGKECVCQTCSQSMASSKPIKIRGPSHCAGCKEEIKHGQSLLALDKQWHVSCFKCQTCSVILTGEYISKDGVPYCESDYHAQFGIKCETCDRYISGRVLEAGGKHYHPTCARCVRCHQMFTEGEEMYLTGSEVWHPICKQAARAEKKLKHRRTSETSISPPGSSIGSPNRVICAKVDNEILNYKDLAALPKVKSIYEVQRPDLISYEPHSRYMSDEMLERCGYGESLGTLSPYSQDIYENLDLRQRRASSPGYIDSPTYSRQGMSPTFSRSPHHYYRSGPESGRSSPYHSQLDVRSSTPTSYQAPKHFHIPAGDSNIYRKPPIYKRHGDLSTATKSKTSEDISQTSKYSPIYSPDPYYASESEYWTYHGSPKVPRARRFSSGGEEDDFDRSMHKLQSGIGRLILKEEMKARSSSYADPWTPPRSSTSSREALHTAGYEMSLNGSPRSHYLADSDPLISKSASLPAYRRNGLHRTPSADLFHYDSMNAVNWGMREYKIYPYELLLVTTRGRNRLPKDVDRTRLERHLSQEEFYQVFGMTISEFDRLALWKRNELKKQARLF
B5: Beta-taxilin (Homo sapiens), Q8N3L3 (parent)
chain: MEANHSEQLSAERQSTPPGDSSSLPSHNGLEKEDGQDSPTPVQPPEKEASVHPDISEELNRQLEDIINTYGSAASTAGKEGSARASEQPENAESPDNEDGDCEETTEEAGREPVASGEPPTVKEPVSNKEQKLEKKILKGLGKEANLLMQNLNKLQTPEEKFDFLFKKYAELLDEHRTEQKKLKLLQKKQVQIQKEKDQLQGEHSRAILARSKLESLCRELQRHNKTLKEEALQRAREEEEKRKEITSHFQSTLTDIQGQIEQQSERNMKLCQENTELAEKLKSIIDQYELREEHLDKIFKHRELQQKLVDAKLEQAQEMMKEAEERHKREKEYLLNQAAEWKLQAKVLKEQETVLQAQLTLYSGRFEEFQSTLTKSNEVFATFKQEMDKTTKKMKKLEKDTATWKARFENCNKALLDMIEEKALRAKEYECFVMKIGRLENLCRALQEERNELHKKIRDAEISEKDDQSQHNSDEEPESNVSVDQEIDAEEVNSVQTAVKNLATAFMIIHHPESTPHQSKETQPEIGSSQESADAALKEPEQPPLIPSRDSESPLPPLTPQAEAEGGSDAEPPSKASNSPAGLGAETQCEGLPVGAQADQASWKPEAEASGQAPQAPTEASLQKMEADVPAPACAAEEHVAAMVPACEPSRQPPRAAAEELPVGASAGPQPRNVADTNLEGVD
partner: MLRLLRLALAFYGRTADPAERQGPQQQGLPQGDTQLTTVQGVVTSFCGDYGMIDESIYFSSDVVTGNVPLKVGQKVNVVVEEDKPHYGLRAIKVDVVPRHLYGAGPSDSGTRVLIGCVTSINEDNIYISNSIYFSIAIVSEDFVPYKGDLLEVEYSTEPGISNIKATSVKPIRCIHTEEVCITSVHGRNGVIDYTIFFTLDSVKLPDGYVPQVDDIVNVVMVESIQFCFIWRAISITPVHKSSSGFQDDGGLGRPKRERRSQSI
B6: Retinoic acid receptor alpha (Homo sapiens), P10276 (parent)
chain: MASNSSSCPTPGGGHLNGYPVPPYAFFFPPMLGGLSPPGALTTLQHQLPVSGYSTPSPATIETQSSSSEEIVPSPPSPPPLPRIYKPCFVCQDKSSGYHYGVSACEGCKGFFRRSIQKNMVYTCHRDKNCIINKVTRNRCQYCRLQKCFEVGMSKESVRNDRNKKKKEVPKPECSESYTLTPEVGELIEKVRKAHQETFPALCQLGKYTTNNSSEQRVSLDIDLWDKFSELSTKCIIKTVEFAKQLPGFTTLTIADQITLLKAACLDILILRICTRYTPEQDTMTFSDGLTLNRTQMHNAGFGPLTDLVFAFANQLLPLEMDDAETGLLSAICLICGDRQDLEQPDRVDMLQEPLLEALKVYVRKRRPSRPHMFPKMLMKITDLRSISAKGAERVITLKMEIPGSMPPLIQEMLENSEGLDTLSGQPGGGGRDGGGLAPPPGSCSPSLSPSSNRSSPATHSP
partner: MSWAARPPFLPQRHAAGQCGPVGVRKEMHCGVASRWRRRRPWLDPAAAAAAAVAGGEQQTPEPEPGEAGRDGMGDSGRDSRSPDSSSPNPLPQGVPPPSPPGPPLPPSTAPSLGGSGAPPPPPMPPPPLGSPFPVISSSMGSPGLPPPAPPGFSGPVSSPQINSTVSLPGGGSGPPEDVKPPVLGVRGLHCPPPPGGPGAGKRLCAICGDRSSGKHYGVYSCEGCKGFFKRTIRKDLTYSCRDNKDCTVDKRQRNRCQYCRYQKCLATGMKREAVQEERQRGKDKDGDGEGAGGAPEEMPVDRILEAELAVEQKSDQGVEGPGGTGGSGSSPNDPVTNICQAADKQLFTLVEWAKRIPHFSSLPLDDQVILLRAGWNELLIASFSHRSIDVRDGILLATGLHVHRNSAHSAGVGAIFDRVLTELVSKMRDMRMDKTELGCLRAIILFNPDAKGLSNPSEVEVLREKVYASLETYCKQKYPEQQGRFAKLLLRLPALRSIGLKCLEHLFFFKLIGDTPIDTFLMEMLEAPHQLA
B7: TBC1 domain family member 22B (Homo sapiens), Q9NU19 (parent)
chain: MAAENSKQFWKRSAKLPGSIQPVYGAQHPPLDPRLTKNFIKERSKVNTVPLKNKKASSFHEFARNTSDAWDIGDDEEEDFSSPSFQTLNSKVALATAAQVLENHSKLRVKPERSQSTTSDVPANYKVIKSSSDAQLSRNSSDTCLRNPLHKQQSLPLRPIIPLVARISDQNASGAPPMTVREKTRLEKFRQLLSSQNTDLDELRKCSWPGVPREVRPITWRLLSGYLPANTERRKLTLQRKREEYFGFIEQYYDSRNEEHHQDTYRQIHIDIPRTNPLIPLFQQPLVQEIFERILFIWAIRHPASGYVQGINDLVTPFFVVFLSEYVEEDVENFDVTNLSQDMLRSIEADSFWCMSKLLDGIQDNYTFAQPGIQKKVKALEELVSRIDEQVHNHFRRYEVEYLQFAFRWMNNLLMRELPLRCTIRLWDTYQSEPEGFSHFHLYVCAAFLIKWRKEILDEEDFQGLLMLLQNLPTIHWGNEEIGLLLAEAYRLKYMFADAPNHYRR
partner: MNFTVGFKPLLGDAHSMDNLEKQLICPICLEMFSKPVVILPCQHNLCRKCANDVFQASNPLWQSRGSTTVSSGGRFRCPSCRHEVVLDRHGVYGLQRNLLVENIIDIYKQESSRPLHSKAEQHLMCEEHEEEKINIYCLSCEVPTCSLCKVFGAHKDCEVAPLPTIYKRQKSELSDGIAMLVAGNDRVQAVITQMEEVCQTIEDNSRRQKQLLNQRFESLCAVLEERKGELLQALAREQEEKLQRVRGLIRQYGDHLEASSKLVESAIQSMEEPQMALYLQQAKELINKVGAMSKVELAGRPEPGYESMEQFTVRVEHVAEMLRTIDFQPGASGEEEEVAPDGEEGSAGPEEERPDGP
B8: 6-pyruvoyl tetrahydrobiopterin synthase (Homo sapiens), Q03393 (parent)
chain: MSTEGGGRRCQAQVSRRISFSASHRLYSKFLSDEENLKLFGKCNNPNGHGHNYKVVVTVHGEIDPATGMVMNLADLKKYMEEAIMQPLDHKNLDMDVPYFADVVSTTENVAVYIWDNLQKVLPVGVLYKVKVYETDNNIVVYKGE

Variants of: B1
Conditions: with rint1_human RINT1, Q6NUQ1
rint1_human RINT1, Q6NUQ1, sequence (Q6NUQ1 whole entry): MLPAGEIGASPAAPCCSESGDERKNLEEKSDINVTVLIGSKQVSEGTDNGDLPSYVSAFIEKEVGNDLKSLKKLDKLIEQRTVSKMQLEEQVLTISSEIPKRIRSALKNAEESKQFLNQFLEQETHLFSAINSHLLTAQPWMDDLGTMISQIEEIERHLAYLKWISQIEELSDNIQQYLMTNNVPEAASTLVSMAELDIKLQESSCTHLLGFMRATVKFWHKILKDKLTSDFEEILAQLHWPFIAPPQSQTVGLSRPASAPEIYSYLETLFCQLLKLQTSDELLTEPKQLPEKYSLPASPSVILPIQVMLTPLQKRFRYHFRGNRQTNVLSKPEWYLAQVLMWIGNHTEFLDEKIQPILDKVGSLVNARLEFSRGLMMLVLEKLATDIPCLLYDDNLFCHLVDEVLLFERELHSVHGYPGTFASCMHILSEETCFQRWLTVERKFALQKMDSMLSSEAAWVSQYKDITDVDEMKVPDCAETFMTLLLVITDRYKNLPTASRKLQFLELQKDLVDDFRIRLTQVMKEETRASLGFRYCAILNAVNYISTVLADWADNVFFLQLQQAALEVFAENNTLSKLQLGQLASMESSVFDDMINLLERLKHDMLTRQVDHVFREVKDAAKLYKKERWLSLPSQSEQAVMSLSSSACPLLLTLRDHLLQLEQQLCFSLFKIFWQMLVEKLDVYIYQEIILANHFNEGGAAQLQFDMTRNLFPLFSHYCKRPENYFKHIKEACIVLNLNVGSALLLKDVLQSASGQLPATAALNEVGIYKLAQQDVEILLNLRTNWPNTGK

Variant | effect of a mutation on the interaction
S192R | with no effect

Variants of: B1
Conditions: with int13_human INTS13, Q9NVM9
int13_human INTS13, Q9NVM9, sequence (Q9NVM9 whole entry): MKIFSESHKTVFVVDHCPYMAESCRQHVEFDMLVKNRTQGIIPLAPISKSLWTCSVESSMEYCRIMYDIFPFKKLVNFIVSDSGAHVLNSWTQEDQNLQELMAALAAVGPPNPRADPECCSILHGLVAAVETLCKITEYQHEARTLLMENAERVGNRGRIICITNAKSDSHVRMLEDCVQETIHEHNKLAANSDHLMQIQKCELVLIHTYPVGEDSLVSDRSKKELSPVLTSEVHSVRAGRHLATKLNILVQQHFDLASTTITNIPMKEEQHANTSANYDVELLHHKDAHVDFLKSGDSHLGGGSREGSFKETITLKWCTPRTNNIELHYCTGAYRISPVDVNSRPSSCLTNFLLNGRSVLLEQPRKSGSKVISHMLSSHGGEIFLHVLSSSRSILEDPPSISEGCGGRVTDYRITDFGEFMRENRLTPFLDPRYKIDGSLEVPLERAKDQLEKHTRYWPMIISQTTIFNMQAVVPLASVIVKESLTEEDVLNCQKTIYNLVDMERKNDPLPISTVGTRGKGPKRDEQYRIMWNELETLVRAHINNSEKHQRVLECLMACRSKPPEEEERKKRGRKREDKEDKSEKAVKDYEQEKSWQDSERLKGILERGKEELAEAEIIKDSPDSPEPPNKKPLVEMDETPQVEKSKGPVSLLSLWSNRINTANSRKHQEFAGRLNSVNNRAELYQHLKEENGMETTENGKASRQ

Variant | effect of a mutation on the interaction
C466G | with no effect

Variants of: B2
Conditions: with sdcb1_human SDCBP
Target sequence in this assay (O00560 whole entry): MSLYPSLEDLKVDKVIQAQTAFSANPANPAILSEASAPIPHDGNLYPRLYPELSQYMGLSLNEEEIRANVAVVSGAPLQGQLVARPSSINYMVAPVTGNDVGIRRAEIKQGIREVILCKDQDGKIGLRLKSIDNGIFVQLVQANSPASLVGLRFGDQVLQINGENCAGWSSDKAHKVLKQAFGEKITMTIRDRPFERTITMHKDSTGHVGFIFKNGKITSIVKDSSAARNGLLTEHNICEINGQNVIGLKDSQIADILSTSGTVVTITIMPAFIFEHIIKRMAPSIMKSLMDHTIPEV

Variant | effect of a mutation on the interaction
V244M | with no effect
P131S | with no effect

Variants of: B3
Conditions: with rfox2_human RBFOX2, O43251

Variant | effect of a mutation on the interaction
V78I | with no effect
M270I | with no effect
S9Y | with no effect

Variants of: B4
Conditions: with ablm3_human ABLIM3, O94929

Variant | effect of a mutation on the interaction
N119D | with no effect
A24V | with no effect

Variants of: B5
Conditions: with ct55_human CT55, Q8WUE5

Variant | effect of a mutation on the interaction
T361A | with no effect
T523I | with no effect

Variants of: B6
Conditions: with rxrb_human RXRB

Variant | effect of a mutation on the interaction
P318R | with no effect

Variants of: B7
Conditions: with tri54_human TRIM54, Q9BYV2

Variant | effect of a mutation on the interaction
P177A | with no effect

Variants of: B8
Conditions: with ntaq1_human NTAQ1, Q96HA8

Variant | effect of a mutation on the interaction
P123S | disrupting interaction strength
R25Q | disrupting interaction strength
T106M | disrupting interaction strength

Variants of: B8
Conditions: with c1qc_human C1QC

Variant | effect of a mutation on the interaction
R25Q | disrupting interaction strength
T106M | disrupting interaction strength

Variants of: B8
Conditions: with fxr2_human FXR2, P51116

Variant | effect of a mutation on the interaction
R25Q | disrupting interaction strength
T106M | disrupting interaction strength

Variants of: B8
Conditions: with sdcb1_human SDCBP
Target sequence in this assay (O00560 whole entry): as above

Variant | effect of a mutation on the interaction
T106M | disrupting interaction strength
